± gives the standard error. For some assays here: Fewer inactive variants are shown than the library holds.
B1: glmS ribozyme (parent)
chain: AUAAAAGCGCCAGAACUACAGAAAUGUAGUUGACGAGGAGGAGGUUUAUCGAAUUUUCGGCGGAUGCCUCCAAA

Legend:
Details in all cases: with glucosamine-6-phosphate
glucosamine-6-phosphate [1] = variants of: B1; test: kcat; higher = faster cleavage; RNA array
Outline: (§1)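 Sequenced MiSeq chips were the platform: E. coli RNA polymerase transcribed barcoded ribozyme variants on them in situ, and a hybridised Cy3 probe tracked these at 37 °C. After glucosamine-6-phosphate (40 μM to 10 mM) in HEPES/KCl/Mg(OAc)2 buffer was flowed in, tiles were imaged over ~14 h. Signals normalised to baseline and to non-cleaving reference variants were reduced to per-tile medians and fit to one- or two-exponential decays to obtain kobs. kcat and KM were derived through weighted Michaelis–Menten fits across concentrations.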

glucosamine-6-phosphate [2] = variants of: B1; test: KM; higher = weaker cofactor use; RNA array
Outline: as §1

glucosamine-6-phosphate [3] = variants of: B1; test: self-cleavage kobs at 640 uM GlcN6P; higher = faster cleavage; RNA array
Outline: as §1

glucosamine-6-phosphate [4] = variants of: B1; test: self-cleavage kobs at 2500 uM GlcN6P; higher = faster cleavage; RNA array
Outline: as §1

glucosamine-6-phosphate [5] = variants of: B1; test: self-cleavage kobs at 10000 uM GlcN6P; higher = faster cleavage; RNA array
Outline: as §1

glucosamine-6-phosphate [6] = variants of: B1; test: self-cleavage kobs at 160 uM GlcN6P; higher = faster cleavage; RNA array
Outline: as §1

glucosamine-6-phosphate [7] = variants of: B1; test: self-cleavage kobs at 40 uM GlcN6P; higher = faster cleavage; RNA array
Outline: as §1

| Variant | kcat (glucosamine-6-phosphate [1]) | KM (glucosamine-6-phosphate [2]) | self-cleavage kobs at 640 uM GlcN6P (glucosamine-6-phosphate [3]) | self-cleavage kobs at 2500 uM GlcN6P (glucosamine-6-phosphate [4]) | self-cleavage kobs at 10000 uM GlcN6P (glucosamine-6-phosphate [5]) | self-cleavage kobs at 160 uM GlcN6P (glucosamine-6-phosphate [6]) | self-cleavage kobs at 40 uM GlcN6P (glucosamine-6-phosphate [7]) |
| --- | --- | --- | --- | --- | --- | --- | --- |
| U31A C67G | 0.000586 ± 0.00013 s⁻¹ | 3660 ± 1500 µM | 0.0001 ± 2.6e-05 s⁻¹ | 0.000201 ± 4.4e-05 s⁻¹ | 0.000456 ± 7.3e-05 s⁻¹ |  |  |
| U30A A53C | 0.00232 ± 0.00044 s⁻¹ | 3590 ± 950 µM | 0.000357 ± 6.9e-05 s⁻¹ | 0.000882 ± 0.00014 s⁻¹ | 0.00196 ± 0.00049 s⁻¹ | 0.000107 ± 2.5e-05 s⁻¹ |  |
| U31A U54A | 0.011 ± 0.003 s⁻¹ | 1640 ± 590 µM | 0.00342 ± 0.00062 s⁻¹ | 0.00508 ± 0.0013 s⁻¹ | 0.0126 ± 0.0031 s⁻¹ | 0.00112 ± 0.00023 s⁻¹ | 0.000241 ± 4.8e-05 s⁻¹ |
| U31A G63U U69G | 3.2e-05 ± 9.9e-06 s⁻¹ |  |  |  |  |  |  |
| U31C A64U | < 1e-05 s⁻¹ |  |  |  |  |  |  |
| U31C A64G | 0.00541 ± 0.0022 s⁻¹ |  | 0.00109 ± 0.00013 s⁻¹ | 0.00224 ± 0.00024 s⁻¹ | 0.00363 ± 0.00047 s⁻¹ | 0.000159 ± 2.1e-05 s⁻¹ | 7.83e-05 ± 1.1e-05 s⁻¹ |
| U30C C58U C70U | 3.42e-05 ± 1.3e-05 s⁻¹ |  | 5.85e-05 ± 2.1e-05 s⁻¹ | 3.95e-05 ± 1.9e-05 s⁻¹ |  |  |  |
| G29C C71U | 0.00146 ± 0.0004 s⁻¹ | 1590 ± 700 µM | 0.000356 ± 4.9e-05 s⁻¹ | 0.000805 ± 9.7e-05 s⁻¹ | 0.00143 ± 0.00015 s⁻¹ | 0.000119 ± 1.8e-05 s⁻¹ | 6.23e-05 ± 7.6e-06 s⁻¹ |
| G29U C68U | 0.0008 ± 6.2e-05 s⁻¹ | 1710 ± 230 µM | 0.00022 ± 2.5e-05 s⁻¹ | 0.000435 ± 5.5e-05 s⁻¹ | 0.000719 ± 7.8e-05 s⁻¹ | 6.87e-05 ± 1e-05 s⁻¹ | 2.51e-05 ± 1e-05 s⁻¹ |
| U30G A36G C71G | 1.69e-05 ± 3.9e-06 s⁻¹ |  |  | < 1e-05 s⁻¹ | < 1e-05 s⁻¹ |  | < 1e-05 s⁻¹ |
| U31A G32C | 0.000234 ± 1.1e-05 s⁻¹ | 1950 ± 290 µM | 5.55e-05 ± 1.8e-05 s⁻¹ | 0.000141 ± 3e-05 s⁻¹ | 0.000194 ± 2.1e-05 s⁻¹ |  |  |
| G29C G32A | 0.00108 ± 0.00019 s⁻¹ | 1960 ± 740 µM | 0.000251 ± 8.5e-05 s⁻¹ | 0.000762 ± 0.00038 s⁻¹ | 0.0009 ± 0.00015 s⁻¹ |  | 3.72e-05 ± 1.5e-05 s⁻¹ |
| G29C G32U | 0.000823 ± 0.00021 s⁻¹ | 7540 ± 2900 µM |  | 0.000226 ± 6.2e-05 s⁻¹ | 0.000448 ± 0.00016 s⁻¹ |  |  |
| U30G U31G | 0.0304 ± 0.012 s⁻¹ |  | 0.0102 ± 0.0017 s⁻¹ |  | 0.036 ± 0.0081 s⁻¹ |  | 0.00149 ± 0.00022 s⁻¹ |
| U30C A53U | 0.000197 ± 3.1e-05 s⁻¹ | 1290 ± 540 µM | 5.5e-05 ± 1e-05 s⁻¹ | 0.000158 ± 1.5e-05 s⁻¹ | 0.000159 ± 1.8e-05 s⁻¹ |  |  |
| U31A C58A | 0.00103 ± 0.00024 s⁻¹ |  |  |  | 0.000242 ± 3.7e-05 s⁻¹ |  |  |
| U30G C68G | 3.09e-05 ± 2.2e-06 s⁻¹ | 120 ± 57 µM |  | 3.26e-05 ± 1.2e-05 s⁻¹ | 2.71e-05 ± 1.3e-05 s⁻¹ |  |  |

Reference: the supplement of paper PMC7125110
